Reference: paper PMC4678811, “Assembly and dynamics of the U4/U6 di-snRNP by single-molecule FRET” (Nucleic Acids Research, 2015)
Values joined by “and” are separate entries in the source; they are usually repeats but may differ in a detail not shown here. Equal entries are not always repeated.

Assays:
[1] = system: LSm2-LSm8 complex (Saccharomyces cerevisiae); experiment: EMSA; settings: apparent; Hill 1.7; EMSA: 2 nM RNA, 10 mM K-HEPES pH 7.5, 100 mM KCl, 0.01% NP-40, 20 ug E. coli tRNA in 100 ul, on ice 60 min, 4% native gel 0.5X TBE 4 C; smFRET: 10 mM Tris-HCl …
[2] = system: Prp3/4 (Prp3-Prp4 complex) (Saccharomyces cerevisiae); experiment: EMSA; settings: apparent; Hill 2.6; EMSA: 2 nM RNA, 10 mM K-HEPES pH 7.5, 100 mM KCl, 0.01% NP-40, 20 ug E. coli tRNA in 100 ul, on ice 60 min, 4% native gel 0.5X TBE 4 C; smFRET: 10 mM Tris-HCl …
[3] = system: Prp31 (Saccharomyces cerevisiae); experiment: EMSA; settings: apparent; Hill 1.9; EMSA: 2 nM RNA, 10 mM K-HEPES pH 7.5, 100 mM KCl, 0.01% NP-40, 20 ug E. coli tRNA in 100 ul, on ice 60 min, 4% native gel 0.5X TBE 4 C; smFRET: 10 mM Tris-HCl …
[4] = system: Sm protein complex (SmB, D1, D2, D3, E, F, G) (Saccharomyces cerevisiae); experiment: EMSA; settings: apparent; Hill 3.5; EMSA: 2 nM RNA, 10 mM K-HEPES pH 7.5, 100 mM KCl, 0.01% NP-40, 20 ug E. coli tRNA in 100 ul, on ice 60 min, 4% native gel 0.5X TBE 4 C; smFRET: 10 mM Tris-HCl …
[5] = system: Snu13 (Saccharomyces cerevisiae); experiment: EMSA; settings: apparent; Hill 1; EMSA: 2 nM RNA, 10 mM K-HEPES pH 7.5, 100 mM KCl, 0.01% NP-40, 20 ug E. coli tRNA in 100 ul, on ice 60 min, 4% native gel 0.5X TBE 4 C; smFRET: 10 mM Tris-HCl …
[6] = target: the molecule itself; experiment: native MS; minor peaks of the Mono-Q column after the main peak of the purified LSm2–LSm8 complex

| Molecule | Kd [1] [nM] | Kd [2] [nM] | Kd [3] [nM] | Kd [4] [nM] | Kd [5] [nM] | stoichiometry N [6] |
| --- | --- | --- | --- | --- | --- | --- |
| U4/U6 snRNA duplex (full length) | 5 | 57 | 243 | 89 | 17 |  |
| LSm2–LSm8 complex (complex, Saccharomyces cerevisiae, LSm2, Saccharomyces cerevisiae, untagged; LSm3, Saccharomyces cerevisiae, untagged; LSm4, Saccharomyces cerevisiae, amino acids 1-106, untagged; LSm5, Saccharomyces cerevisiae; LSm6, Saccharomyces cerevisiae, untagged; LSm7, Saccharomyces cerevisiae, untagged; LSm8, Saccharomyces cerevisiae; Both tags are TEV-cleavable; also called LSm 2–8 complex; LSm complex; source: S. cerevisiae BCY123, …) chain 1: MLFFSFFKTLVDQEVVVELKNDIEIKGTLQSVDQFLNLKLDNISCTDEKKYPHLGSVRNIFIRGSTVRYVYLNKNMVDTNLLQDATRREVMTERK chain 2: METPLDLLKLNLDERVYIKLRGARTLVGTLQAFDSHCNIVLSDAVETIYQLNNEELSESERRCEMVFIRGDTVTLISTPSEDDDGAVEI chain 3: MLPLYLLTNAKGQQMQIELKNGEIIQGILTNVDNWMNLTLSNVTEYSEESAINSEDNAESSKAVKLNEIYIRGTFIKFIKLQDNIIDKVKQQINSNNNSNSNGPGH chain 4: MSLPEILPLEVIDKTINQKVLIVLQSNREFEGTLVGFDDFVNVILEDAVEWLIDPEDESRNEKVMQHHGRMLLSGNNIAILVPGGKKTPTEAL chain 5: MSGKASTEGSVTTEFLSDIIGKTVNVKLASGLLYSGRLESIDGFMNVALSSATEHYESNNNKLLNKFNSDVFLRGTQVMYISEQKI chain 6: MHQQHSKSENKPQQQRKKFEGPKREAILDLAKYKDSKIRVKLMGGKLVIGVLKGYDQLMNLVLDDTVEYMSNPDDENNTELISKNARKLGLTVIRGTILVSLSSAEGSDVLYMQK chain 7: MSATLKDYLNKRVVIIKVDGECLIASLNGFDKNTNLFITNVFNRISKEFICKAQLLRGSEIALVGLIDAENDDSLAPIDEKKVPMLKDTKNKIENEHVIWEKVYESKTK |  |  |  |  |  | 2 and 3 |
